Measured values from paper PMC12157425 (bioRxiv, 2025).
Where no end group is shown, it is not given here. [ ]: non-standard residue; d: D form. pT = C[C@@H](OP(=O)(O)O)[C@H](N)C(=O)O; pS = N[C@@H](COP(=O)(O)O)C(=O)O

What was measured:
3Q βarr1 = 3Q βarr1 (Homo sapiens, UniProt P49407, C125S/C140L/C150V/C242V/C251V/C269S/C59V/K232Q/K250Q/R236Q); assay: Fluorescence polarization binding of BODIPY-PIP2 to 3Q βarr1; details: FP with a BODIPY-derivative of PIP2
βarr1 = βarr1 (Homo sapiens, UniProt P49407, A12C/C125S/C140L/C150V/C242V/C251V/C269S/C59V/V387C); assay: smFRET imaging of surface-tethered βarr1–12-387-AF488-AT647N C-tail sensor; format: biochemical; details: parent sensor, 100 μM PIP2
[1] = target: βarr1–12-387-AF488-AT647N (cysteine-free human β-arrestin 1 C-tail sensor with cysteines at positions 12 and 387) (human) (UniProt P49407); assay: other fluorescence titration
[2] = target: βarr1–12-398-AF488-AT647 (human) (UniProt P49407)
[3] = target: βarr1–12-387-AF488-AT647N (cysteine-free human β-arrestin 1 C-tail sensor with cysteines at positions 12 and 387) (human) (UniProt P49407); assay: single-molecule FRET
[4] = target: βarr1–12-387-AF488-AT647N (cysteine-free human β-arrestin 1 C-tail sensor with cysteines at positions 12 and 387) (human) (UniProt P49407); assay: single-molecule FRET; remark: listed apart in the source
[5] = target: 3A βarr1 (F388A/V387C/I386A triple mutant of the βarr1–12-387 C-tail sensor) (human) (UniProt P49407); assay: single-molecule FRET

Row | Molecule | binding of PIP2 to βarr1 3Q (3Q βarr1) | mid-FRET dwell time representing the PIP2-bound state (βarr1) [s] | EC50 [1] [µM] | EC50 [2] [µM] | EC50 [3] [µM] | EC50 [4] [µM] | EC50 [5] [µM]
1 | phosphatidylinositol 4,5-bisphosphate [PIP2] | essentially lost binding | ~2 |  |  |  |  | 
2 | ARGRTPPSLGPQDESCT[pT]A[pS][pS][pS]LAKDTSS [P56, V2Rpp-derived phosphopeptide lacking four N-terminal phosphorylation sites] |  |  | 30 |  |  |  | 
3 | ARGR[pT]PP[pS]LGPQDE[pS]C[pT][pT]A[pS][pS][pS]LAKDTSS |  |  | 1.5 | 0.75 | 11.6 | 11.8 | 0.4
